# T1: human oxytocin receptor (human, UniProt P30559 1-389)
# T1 sequence: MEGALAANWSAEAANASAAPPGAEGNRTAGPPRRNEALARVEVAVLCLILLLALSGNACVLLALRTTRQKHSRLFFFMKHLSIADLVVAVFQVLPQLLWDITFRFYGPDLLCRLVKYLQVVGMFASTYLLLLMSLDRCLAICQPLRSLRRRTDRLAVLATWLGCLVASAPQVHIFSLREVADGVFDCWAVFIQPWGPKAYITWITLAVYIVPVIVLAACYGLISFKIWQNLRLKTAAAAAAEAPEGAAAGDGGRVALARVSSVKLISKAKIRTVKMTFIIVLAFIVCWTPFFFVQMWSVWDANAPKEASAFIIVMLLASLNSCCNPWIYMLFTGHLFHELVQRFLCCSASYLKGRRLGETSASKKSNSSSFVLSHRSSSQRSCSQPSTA
# T2: murine oxytocin receptor (mouse, UniProt P97926 1-388)
# T2 sequence: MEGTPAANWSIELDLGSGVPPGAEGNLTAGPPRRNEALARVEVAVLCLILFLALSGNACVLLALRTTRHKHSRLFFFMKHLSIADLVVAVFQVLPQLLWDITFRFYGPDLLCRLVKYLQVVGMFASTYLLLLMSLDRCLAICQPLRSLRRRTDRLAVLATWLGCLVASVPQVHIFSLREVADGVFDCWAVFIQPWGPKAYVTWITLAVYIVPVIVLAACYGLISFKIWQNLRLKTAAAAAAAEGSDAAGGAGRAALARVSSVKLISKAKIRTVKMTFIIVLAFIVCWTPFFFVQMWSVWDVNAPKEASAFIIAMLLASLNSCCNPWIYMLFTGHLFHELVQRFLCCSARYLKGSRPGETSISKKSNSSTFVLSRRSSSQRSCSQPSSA
# Legend:
# human oxytocin receptor = target: T1, human oxytocin receptor; assay: cell-based or functional assay
# [1] = target: human vasopressin V1a receptor (human, UniProt P37288 1-418); assay: cell-based or functional assay
# murine oxytocin receptor = target: T2, murine oxytocin receptor; assay: cell-based or functional assay
# [2] = target: murine vasopressin V2 receptor (mouse, UniProt O88721 1-371); assay: radioligand binding
# Sequence of murine vasopressin V2 receptor (O88721 whole entry): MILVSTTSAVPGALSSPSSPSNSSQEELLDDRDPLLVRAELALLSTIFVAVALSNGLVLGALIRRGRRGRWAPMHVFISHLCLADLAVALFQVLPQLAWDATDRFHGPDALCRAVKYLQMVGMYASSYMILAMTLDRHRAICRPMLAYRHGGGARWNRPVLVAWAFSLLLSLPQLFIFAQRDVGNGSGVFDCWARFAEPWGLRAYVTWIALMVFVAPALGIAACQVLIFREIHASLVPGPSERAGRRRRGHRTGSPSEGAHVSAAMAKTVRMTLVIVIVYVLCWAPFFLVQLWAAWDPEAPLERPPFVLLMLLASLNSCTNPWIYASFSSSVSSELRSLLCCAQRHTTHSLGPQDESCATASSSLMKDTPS
# Sequence of human vasopressin V1a receptor (P37288 whole entry): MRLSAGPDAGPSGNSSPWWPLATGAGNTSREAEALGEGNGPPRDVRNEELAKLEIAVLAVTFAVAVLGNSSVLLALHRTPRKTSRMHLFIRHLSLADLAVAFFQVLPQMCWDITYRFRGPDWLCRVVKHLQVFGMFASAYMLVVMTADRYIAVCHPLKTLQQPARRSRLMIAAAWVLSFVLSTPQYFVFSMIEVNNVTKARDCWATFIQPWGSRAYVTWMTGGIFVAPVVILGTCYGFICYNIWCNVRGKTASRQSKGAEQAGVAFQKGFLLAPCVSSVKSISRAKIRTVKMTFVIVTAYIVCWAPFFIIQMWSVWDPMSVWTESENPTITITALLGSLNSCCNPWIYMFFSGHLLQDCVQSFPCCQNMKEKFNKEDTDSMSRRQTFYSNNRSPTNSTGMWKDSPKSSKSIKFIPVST
binder,measurement,setting,value
"UYIQNUPLG (selenocysteine at positions 1 and 6, joined by a diselenide bond; C-terminal acid instead of the amide) [[Se-Se]-OT-OH]","HTRF IP1 accumulation in transfected COS-1 cells, EC50",human oxytocin receptor,38 nM
same,"tissue bath, contraction amplitude of strips of pregnant human myometrium, EC50",human oxytocin receptor,5.89 nM
same,"FLIPR Ca2+ mobilization, EC50",[1],> 10000 nM
same,"HTRF IP1 accumulation in transfected HEK293 cells, Emax",murine oxytocin receptor,43%
same,Ki1 (bi-phasic binding curve),[2],0.71 nM

# Source: publication PMC5892705 (Science signaling, 2017)
